Test results: article PMC6597557, “A split fluorescent reporter with rapid and reversible complementation” (Nature Communications, 2019)

Columns and labels:
Conditions in all cases: both partners purified
[1] = molecular target: T1, NFAST (fragment 1–114 of FAST); assay: other fluorescence titration; synthetic CFASTn peptides (n = 8–11) and recombinant purified NFAST in the presence of fluorogen (10 µM HMBR; also HBR-3,5DOM); Spark 10M plate reader; one-site-specific binding fit; apparent
T1 construct: N-terminal fragment (residues 1-114) of the engineered fluorogenic reporter FAST, split between Ser 114 and Gly 115; numbers count on: FAST; Cloned in pET28a with NheI and XhoI; Surmise: the His tag is the N-terminal one of the vector; no cleavage is told; also called recombinantly purified NFAST; source: E. coli Rosetta (DE3) pLysS, purified (Ni-NTA, PD-10 desalting)
T1 chain: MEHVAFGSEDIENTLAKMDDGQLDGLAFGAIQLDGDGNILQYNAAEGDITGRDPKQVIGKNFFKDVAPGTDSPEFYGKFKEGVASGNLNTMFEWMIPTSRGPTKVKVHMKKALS

CFAST10 [2] = molecular target: T2, CFAST10; assay: other fluorescence titration; NFAST titrated onto 100 nM CFASTn in the presence of 10 µM HBR-3,5DOM; pH 7.4 phosphate buffered saline, 25 °C; excitation 520 nm, emission 600 nm; plate reader; one-site-specific binding fit; apparent
T2 construct: CFAST11 without its last C-terminal residue; source: synthetic peptide, bought: Clinisciences, 98% purity
T2 peptide: Ac-GDSYWVFVKR-NH2

[3] = molecular target: T3, CFAST11 (fragment 115-125 of FAST); assay: as above
T3 construct: C-terminal fragment 115-125 of the engineered protein FAST; source: synthetic peptide, bought: Clinisciences, 98% purity
T3 peptide: Ac-GDSYWVFVKRV-NH2

CFAST9 [4] = molecular target: T4, CFAST9; assay: as above
T4 construct: CFAST11 without its last two C-terminal residues; source: synthetic peptide, bought: Clinisciences, 98% purity
T4 peptide: Ac-GDSYWVFVK-NH2

CFAST10 [5] = molecular target: T2, CFAST10; assay: other fluorescence titration; NFAST titrated onto 100 nM CFASTn in the presence of 10 µM HMBR; pH 7.4 phosphate buffered saline, 25 °C; excitation 480 nm, emission 540 nm; plate reader; one-site-specific binding fit; apparent
[6] = molecular target: T3, CFAST11 (fragment 115-125 of FAST); assay: as above
CFAST9 [7] = molecular target: T4, CFAST9; assay: as above
CFAST8 = molecular target: T5, CFAST8; assay: as above
T5 construct: CFAST11 without its last three C-terminal residues; source: synthetic peptide, bought: Clinisciences, 98% purity
T5 peptide: Ac-GDSYWVFV-NH2

| binding result [1] | Kd (CFAST10 [2]) | Kd [3] | Kd (CFAST9 [4]) | Kd (CFAST10 [5]) | Kd [6] | Kd (CFAST9 [7]) | Kd (CFAST8) | Binder |
| --- | --- | --- | --- | --- | --- | --- | --- | --- |
| binds |  |  |  |  |  |  |  | Ac-GDSYWVFVKRV-NH2 (C-terminal fragment (residues 115-125) of the engineered reporter FAST; numbers count on: FAST; source: synthetic peptide, bought: Clinisciences (98% purity)) [CFAST11 (fragment 115–125 of FAST), synthetic peptide] |
| binds |  |  |  |  |  |  |  | Ac-GDSYWVFVKR-NH2 (CFAST11 without its last C-terminal residue; numbers count on: FAST; source: synthetic peptide, bought: Clinisciences (98% purity)) [CFAST10, synthetic peptide] |
|  | 6.2 ± 0.5 µM | 1.4 ± 0.2 µM | 25 ± 1 µM | 0.95 ± 0.08 µM | 0.21 ± 0.05 µM | 5.7 ± 0.6 µM | 21 ± 4 µM | NFAST (fragment 1-114 of FAST, Fluorescence-Activating and absorption-Shifting Tag) (domain or fragment, Cloned into pET28a by NheI and XhoI; also called Histag-NFAST; pAG209; source: E. coli Rosetta (DE3) pLysS, purified (Ni-NTA, PD-10 desalting into PBS)) MEHVAFGSEDIENTLAKMDDGQLDGLAFGAIQLDGDGNILQYNAAEGDITGRDPKQVIGKNFFKDVAPGTDSPEFYGKFKEGVASGNLNTMFEWMIPTSRGPTKVKVHMKKALS |
